This experiment deals with Alkaline phosphatase-hNogo-A(1055-1120) (human, UniProt P05187 23-511). Nature of the experiment: AP-fusion ligand binding to COS-7 cells transfected with myc-mNgR3; expression checked by anti-myc staining and immunoblot. The text has this: The mouse NgR3 cDNA was amplified by PCR from mouse adult brain cDNA, from the signal sequence to the stop codon, and ligated into the pSecTag2 vector such that the vector encodes a signal sequence followed by a myc tag followed by the mature mNgR3 sequence. This plasmid was transfected into COS07cells, and expression of a myc-tagged protein of the predicted size was verified by immunoblot analysis.

We go through one molecule from patent US20030124704A1 (YALE UNIVERSITY, published 2003).

Alkaline phosphatase-hNogo-A(1055-1120), sequence (P05187 other isoform, or with tags, fused parts or gaps): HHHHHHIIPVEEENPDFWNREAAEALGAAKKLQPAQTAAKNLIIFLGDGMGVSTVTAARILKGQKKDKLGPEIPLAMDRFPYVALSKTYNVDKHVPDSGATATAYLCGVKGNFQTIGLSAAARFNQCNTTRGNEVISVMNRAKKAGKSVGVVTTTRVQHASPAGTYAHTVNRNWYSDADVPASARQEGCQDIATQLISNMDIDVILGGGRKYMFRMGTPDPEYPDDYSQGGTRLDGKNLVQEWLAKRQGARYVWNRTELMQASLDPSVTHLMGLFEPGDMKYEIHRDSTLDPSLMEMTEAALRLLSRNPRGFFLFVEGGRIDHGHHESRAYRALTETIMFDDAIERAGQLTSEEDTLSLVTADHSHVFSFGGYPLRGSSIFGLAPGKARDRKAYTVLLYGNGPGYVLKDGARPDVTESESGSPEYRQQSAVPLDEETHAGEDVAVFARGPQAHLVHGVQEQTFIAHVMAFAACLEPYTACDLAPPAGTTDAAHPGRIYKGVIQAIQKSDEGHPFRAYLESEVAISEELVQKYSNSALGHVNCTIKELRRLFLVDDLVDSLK

B1: myc epitope-tagged mouse NgR3 (mNgR3) expressed on COS-7 cells (receptor, not shown: small tags and cut ends)
chain: CPRDCVCYPAPMTVSCQAHNFAAIPEGIPEDSERIFLQNNRITFLQQGHFSPAMVTLWIYSNNITFIAPNTFEGFVHLEELDLGDNRQLRTLAPETFQGLVKLHALYLYKCGLSALPAGIFGGLHSLQYLYLQDNHIEYLQDDIFVDLVNLSHLFLHGNKLWSLGQGIFRGLVNLDRLLLHENQLQWVHHKAFHDLHRLTTLFLFNNSLTELQGDCLAPLVALEFLRLNGNAWDCGCRARSLWEWLRRFRGSSSAVPCATPELRQGQDLKLLRVEDFRNCTGPVSPHQIKSHTLTTSDRAARKEHHPSHGASRDKGHPHGHPPGSRSGYKKAGKNCTSHRNRNQISKVSSGKELTELQDYAPDYQHKFSFDIMPTARPKRKGKCARRTPIRAPSGVQQAS
notes: The cDNA was amplified from mouse adult brain; Any processing of the C-terminal GPI signal is not described; also called myc-NgR3
Turning to B1, the binding result is reported as “no binding”.
